{
  "source": "patent US20250043290A1",
  "about": "“RNA SEQUENCES THAT INDUCE FLUORESCENCE OF SMALL MOLECULE FLUOROPHORES, MOLECULAR COMPLEXES, SENSORS, AND METHODS OF USE THEREOF” (CORNELL UNIVERSITY, priority 2021, published 2025)",
  "molecules": {"B1": {"name": "DE1-2: brightest aptamer of first directed evolution, SEQ ID NO: 10 (nucleic acid)", "chain": "GCCUAGGCUUCAAGGUGAGCCCAAUAAUAUGGUUUGGGUUAGGAUAGGAAGAAGAGCCUUAAACUCUCUAAGCGGAAGUCUAGGC", "modifications": "listed as RNA, chemistry not given here"}, "B2": {"name": "DE2-6: aptamer of second directed evolution, SEQ ID NO: 11 (nucleic acid)", "chain": "B1 chain with U10A, A52U, A76U", "modifications": "listed as RNA, chemistry not given here"}, "B3": {"name": "9-1: initial SELEX hit from sprouts/clips library, SEQ ID NO: 9 (nucleic acid)", "chain": "GCCUAGGCUUCAAGGUGGCCCAAUGAUAUGGUUUGGGUUAGGAUAGGAAUAAGAGCCUUAAACUCUUCAAAGCGGAAGUCUAGGC", "modifications": "listed as RNA, chemistry not given here"}, "B4": {"name": "10-1: RNA aptamer from 10 rounds of SELEX that binds DFAME, SEQ ID NO: 95 (nucleic acid)", "chain": "GCUUCCGUGCGACAUCAUGCGCGCGACUGCUUCGGCAGAGGUGGGUGGUGUGGAGGAGUAUCUG", "modifications": "RNA, backbone not given here"}},
  "key": {"[1]": {"assay": "Photophysical properties of fluorophores and RNA-fluorophore complexes (Squash study)", "assay_type": "physicochemical", "conditions": "10 μM RNA, 1 μM DFHO", "experimental": "All RNAs used for in vitro studies (except the initial hits from SELEX and the DE2-6 mutants) were purified using 8% denaturing PAGE (7M urea) and eluted in 0.3 M NaOAc (pH 5.2) overnight. The RNA was ethanol precipitated and quantified using absorbance in a NanoDrop 2000 spectrometer. All in vitro RNA properties were measured in 40 mM HEPES-KOH (pH 7.4), 100 mM KCl, 0.5 mM MgCl2 buffer unless specified.\nAbsorption, excitation, and emission spectra were measured using conditions where the RNA is in excess and the fluorophore is limiting to ensure that no free fluorophore contributes to the absorbance or fluorescence signal (FIGS. 7A-7D).\nAll quantum yields were determined by comparing each RNA-fluorophore complex with Broccli-DFHBI-1T or Corn-DFHO. All measurements for quantum yield were taken in the presence of excess RNA (10 μM final) compared to the fluorophores (0.2 μM final) to avoid interference from unbound fluorophore. The integral of the emission spectra for each Squash-fluorophore complex was compared with the corresponding integrals for Broccoli or Corn to calculate the quantum yield."}, "[2]": {"assay": "On and off rates of aptamer binding to DFHO", "conditions": "50 nM RNA", "experimental": "FIGS. 7A-7H provide photophysical and biophysical characterization of Squash. […] Excess RNA was used to ensure binding of nearly all fluorophore. […] Data represent mean values±s.d. for n=3 independent experiments. […] The fluorescence signal trace was fitted with a monoexponential curve to extract kobs. kobs was plotted as a function of total RNA (50 nM RNA) and fluorophore concentration. kon and koff were extracted as the slope and intercept, respectively. Squash koff (0.014±0.008 s^−1) is very similar to that of Corn (0.018±0.002 s^−1). kon for Squash-DFHO (162300±8100 M^−1 s^−1) is seven-times higher than Corn-DFHO (23000±3000 M^−1 s^−1) which could be due to the high folding of Squash. […]\nTo measure on and off rates of Squash binding to DFHO, the same protocol that was reported previously to measure kinetic rates for Spinach-DFHBI was used (Han et al., “Understanding the Photophysics of the Spinach-DFHBI RNA Aptamer-Fluorogen Complex to Improve Live-Cell RNA Imaging,” J. Am. Chem. Soc. 135:19033-19038 (2013), which is hereby incorporated by reference in its entirety). Briefly, 50 nM RNA was mixed with different amounts of DFHO and binding kinetics was monitored on the fluorimeter as fluorescence signal increases. Each fluorescence signal trace was fitted with a monoexponential curve and the observed rate constant (kobs) was extracted. […]"}, "[3]": {"assay": "Fluorescence activation of DFAME by aptamers in vitro", "assay_type": "biochemical", "experimental": "To test whether Beetroot can activate DFHO, the fluorescence emission spectrum of the Beetroot-DFHO complex was measured. In brief, 20 μM Beetroot and 2 μM DFHO were mixed, and the fluorescence emission of the Beetroot-DFHO complex was measured. […] To test whether Beetroot can activate DFHBI-1T, the fluorescence emission spectrum of the Beetroot-DFHBI-1T complex was measured using the same protocol described in FIG. 32A. […] To test whether Beetroot can activate BI, the fluorescence emission spectrum of the Beetroot-BI complex was measured using the same protocol described in FIG. 32A. […] To test whether Corn can activate DFAME, the fluorescence emission spectrum of the Corn-DFAME complex was measured using the same protocol described in FIG. 32A.\nThe eluted RNAs were then ethanol precipitated, reverse transcribed, PCR amplified and in vitro transcribed to yield the pool for the next SELEX round. The presence of fluorescent RNA species in each pool was assessed by mixing 20 μM RNA and 10 μM DFAME and measuring fluorescence emission of this solution on a fluorometer in comparison with the fluorophore alone. At this point, RNAs were cloned into bacterial expression plasmids for FACS-based screening.\ndsDNA encoding the top-performing RNA sequences from the brightest bacterial colonies was PCR amplified from the purified plasmids. […] The resulting RNA was then purified using Zymo RNA concentrator columns and quantified by absorbance using a Thermo Scientific NanoDrop 2000 spectrophotometer. For absorption, excitation and emission spectra measurements, “excess RNA” conditions and limiting amount of fluorophore was used to ensure that no free fluorophore contributes to the absorbance or fluorescence signal. The RNA concentration used for fluorescence and absorbance measurements was 20 μM and 50 μM, respectively, while the dye concentration was 2 μM and 5 μM, respectively. All in vitro RNA properties were measured in 40 mM HEPES pH 7.4, 100 mM KCl, 5 mM MgCl2 buffer, unless specified."}, "[4]": {"assay": "Fluorescence activation of DFHBI-1T by aptamers in vitro", "assay_type": "biochemical", "excerpt": "FIG. 1A is a schematic illustrating the strategy for evolution of the add A-riboswitch aptamer. Indicated are helices P1-P3, junctional strands (J1/2, J2/3, J3/1), kissing loop (gray lines), and adenine interactions with the aptamer (dotted line) (5′-CUUCAUAUAAUCCUAAUGAUAUGGUUUGGGAGUUUCUACCAAGAGCCUUAAACUCUUGAUUAUGAAG-3′ (SEQ ID NO:36)). The chemical structure of adenine and fluorophores are shown. Three regions (Region 1: 5′-UAU AAU-3′ (SEQ ID NO:37)), Region 2: 5′-AGU UUC UAC C-3′ (SEQ ID NO:38); Region 3: 5′-GAU UAU-3′ SEQ ID NO:39), which include J1/2, J2/3, and J3/1 were randomized in both size and sequence resulting in a sprouts/clips library for SELEX. Each nucleotide in the colored regions was replaced using a combination of random stochastic deletion (designated “N”) and random stochastic insertion (designated “n”). FIG. 1B is schematic showing a three dimensional structure of the add A-riboswitch aptamer highlighting the adenine-binding pocket (PDB 1Y26). The mutagenized regions are shown in the same color as FIG. 1A. Adenine is indicated by the arrow. FIG. 1C is a schematic illustrating the evolution of the add A-riboswitch aptamer into Squash, a DFHBI-1T-binding aptamer. The sprouts/clips library was selected for binding to DFHBI-conjugated agarose resulting in aptamer 9-1. Aptamer 9-1 was subjected to two consecutive rounds of directed evolution generating DE2-6. A pair of mutations was introduced in DE2-6 to strengthen the kissing loop interaction resulting in Squash. FIG. 1D is a graph showing fluorescence activation of DFHBI-1T by different aptamer intermediates that led to Squash. The values inside the bars indicate fold-activation of DFHBI-1T fluorescence by the corresponding aptamer. Data represent mean values±s.d. for n=3 independent experiments. […]\n(§1) FIG. 6A is a bar graph showing fluorescence activation of DFHO by Squash and its precursors. Fluorescence was measured with 200 nM dye and 10 μM RNA (ex: 495 nm, em: 562 nm, except for Corn; ex: 505 nm, em: 545 nm). […] FIG. 6B is a bar graph showing fluorescence of initial hits after Round 7 of SELEX. In vitro transcribed RNAs from each hit (1 μM final) were mixed with DFHBI-1T (10 μM final) and the fluorescence was measured (ex: 452 nm, em: 503 nm, except for Broccoli; ex: 472 nm, em: 507 nm). […] FIGS. 6C-6D are bar graphs showing fluorescence measurements of the hits with DFHBI-1T after first (FIG. 6C) and second (FIG. 6D) round of directed evolution, measured as in FIG. 6B. […] FIG. 6E is a bar graph showing fluorescence measurements of hits using DFHO after the second round of directed evolution measured as in FIG. 6A. The fluorescence of the hits were normalized against Corn. […] FIG. 6F is a graph showing normalized fluorescence. […] Fluorescence was measured as in FIG. 6A. […]"}, "[5]": {"assay": "Fluorescence activation of DFHO by aptamers in vitro", "assay_type": "biochemical", "excerpt": "FIG. 2A is a schematic showing the secondary structure of Squash as predicted by mFOLD (Squash: 5′-GGCUACAAGGUGAGCCCAAUAAUACGGUUUGGGUUAGGAUAGGAAGUAGAGCCGUAAACUCUCUAAGCGGUAGUC-3′ (SEQ ID NO:1)). Squash retained the main structural elements of add A-riboswitch aptamer including a 3-way junction and predicted kissing loop interactions (residues at positions 30, 31, 56, and 57, solid gray line). An additional base pair in the kissing loop between loop L2 and L3 (residues at positions 29 and 58, dotted gray line) improved fluorescence activation. […] Shown are the excitation (Ex) and emission (Em) spectra of Squash bound to DFHBI-1T and DFHO (structures shown in inset). Spectra were measured using 20 μM RNA and 2 μM of the indicated fluorogenic dye. […] Fluorescence activation was measured by incubating 200 nM dye and 10 μM RNA. By using a large excess of RNA compared to the fluorophore, it was ensured that the fluorescence observed is from 200 nM RNA-fluorophore complex. Data represent mean values±s.d. for n=3 independent experiments. The values inside the bars indicate fold activation. AU, arbitrary units. FIG. 2D is a graph showing the dissociation constant (Kd) between Squash and DFHO as measured by titration of 50 nM Squash with increasing concentration of DFHO, and fitted using a one-site saturation model. […] FIG. 2E is a bar graph showing the results of an experiment in which Squash-DFHO fluorescence was measured in buffers containing exclusively the indicated cations. […] Similar to the parental add A-riboswitch aptamer (see Lemay et al., “Folding of the Adenine Riboswitch,” Chem. Biol. 13:857-868 (2006), which is hereby incorporated by reference in its entirety), Squash-DFHO has a low magnesium requirement for fluorescence activation. […]\nas §1"}},
  "note": "Positions count from the first letter of the chain named. Entries after “also recorded” stand apart in the source; their conditions may differ.",
  "data": [
    {"molecule": "Corn: previously reported RNA aptamer that homodimerizes and activates DFHO, SEQ ID NO:103 (CGAGGAAGGAGGUCUGAGGAGGUCACUG; RNA, backbone not given here) [reference compound]", "values": [
      {"measurement": "Emission maxima with DFHO", "setting": "[1]", "value": 545, "unit": "nm"},
      {"measurement": "koff", "setting": "[2]", "value": "0.018 ± 0.002", "unit": "s⁻¹"},
      {"measurement": "Binding and activation of DFAME fluorescence", "setting": "[3]; 20 μM RNA, 2 μM dye", "value": "weakly binds and activates; also recorded: only weakly bind and activate"}
    ]},
    {"molecule": "B1", "values": [
      {"measurement": "Fold activation of DFHBI-1T fluorescence", "setting": "[4]", "value": "approximately 790 fold"}
    ]},
    {"molecule": "B2", "values": [
      {"measurement": "Fold activation of DFHBI-1T fluorescence", "setting": "[4]", "value": "approximately 949 fold"},
      {"measurement": "Fold activation of DFHO fluorescence", "setting": "[5]", "value": "~492", "unit": "fold"}
    ]},
    {"molecule": "B3", "values": [
      {"measurement": "Fold activation of DFHBI-1T fluorescence", "setting": "[4]", "value": "~521", "unit": "fold"}
    ]},
    {"molecule": "B4", "values": [
      {"measurement": "Fold fluorescence enhancement of DFAME", "setting": "[3]; in vitro", "value": "threefold"}
    ]}
  ]
}
